Data published in US20110300138A1 (published 2011).

Legend:
[1] = biological target: TSHR260-AP (fusion protein consisting of a fragment of human TSHR, amino acids 22-260, with alkaline phosphatase) (human); test: bridging ELISA: full length TSHR on wells, TSHR260-AP in liquid phase; IgG 0.005 µg/mL in HBD serum
[2] = biological target: TSHR260-AP (fusion protein consisting of a fragment of human TSHR, amino acids 22-260, with alkaline phosphatase) (human); test: bridging ELISA: full length TSHR on wells, TSHR260-AP in liquid phase; IgG 0.5 µg/mL in HBD serum
[3] = biological target: TSHR260-AP (fusion protein consisting of a fragment of human TSHR, amino acids 22-260, with alkaline phosphatase) (human); test: bridging ELISA: full length TSHR on wells, TSHR260-AP in liquid phase; IgG 0.05 µg/mL in HBD serum
[4] = biological target: TSHR260-AP (fusion protein consisting of a fragment of human TSHR, amino acids 22-260, with alkaline phosphatase) (human); test: bridging ELISA: full length TSHR on wells, TSHR260-AP in liquid phase; IgG 0.01 µg/mL in HBD serum
[5] = biological target: TSHR260-AP (fusion protein consisting of a fragment of human TSHR, amino acids 22-260, with alkaline phosphatase) (human); test: bridging ELISA: full length TSHR on wells, TSHR260-AP in liquid phase; IgG 1 µg/mL in HBD serum
[6] = biological target: TSHR260-AP (fusion protein consisting of a fragment of human TSHR, amino acids 22-260, with alkaline phosphatase) (human); test: bridging ELISA: full length TSHR on wells, TSHR260-AP in liquid phase; IgG 0.1 µg/mL in HBD serum
[7] = biological target: TSHR260-AP (fusion protein consisting of a fragment of human TSHR, amino acids 22-260, with alkaline phosphatase) (human); test: bridging ELISA: full length TSHR on wells, TSHR260-AP in liquid phase; IgG 10 µg/mL in HBD serum
[8] = biological target: T1, thyroid stimulating hormone receptor (TSHR), full length human (human, UniProt P16473 22-764); test: 125I-K1-18 Fab competition, TSHR coated tubes; 10 µg/mL in assay buffer
T1 construct: TSHR coated on plastic tubes; also called TSH receptor
Procedure: (§1) Binding inhibition assays were carried out using TSHR coated tubes as described in WO2004/050708A2. […] After aspiration, the tubes were washed and 100 μL of ¹²⁵I-labelled protein (5×10⁴ cpm) added and incubated for 1 hour at room temperature with shaking. The tubes were then aspirated, washed and counted in a gamma counter. Inhibition of labelled protein binding was calculated as 100×[1−(cpm bound in the presence of test material/cpm bound in the presence of control material)].

[9] = biological target: T1, thyroid stimulating hormone receptor …; test: 125I-K1-18 Fab competition, TSHR coated tubes; 0.1 µg/mL in assay buffer
Procedure: as §1

[10] = biological target: T1, thyroid stimulating hormone receptor …; test: 125I-K1-18 Fab competition, TSHR coated tubes; 1 µg/mL in assay buffer
Procedure: as §1

[11] = biological target: T1, thyroid stimulating hormone receptor …; test: 125I-K1-18 Fab competition, TSHR coated tubes; 30 µg/mL in HBD
Procedure: as §1

[12] = biological target: T1, thyroid stimulating hormone receptor …; test: 125I-K1-18 Fab competition, TSHR coated tubes; 3 µg/mL in assay buffer
Procedure: as §1

[13] = biological target: T1, thyroid stimulating hormone receptor …; test: 125I-K1-18 Fab competition, TSHR coated tubes; 0.1 µg/mL in HBD
Procedure: as §1

[14] = biological target: T1, thyroid stimulating hormone receptor …; test: 125I-K1-18 Fab competition, TSHR coated tubes; 10 µg/mL in HBD
Procedure: as §1

[15] = biological target: T1, thyroid stimulating hormone receptor …; test: 125I-K1-18 Fab competition, TSHR coated tubes; 3 µg/mL in HBD
Procedure: as §1

[16] = biological target: T1, thyroid stimulating hormone receptor …; test: 125I-K1-18 Fab competition, TSHR coated tubes; 100 µg/mL in assay buffer
Procedure: as §1

[17] = biological target: T1, thyroid stimulating hormone receptor …; test: 125I-K1-18 Fab competition, TSHR coated tubes; 30 µg/mL in assay buffer
Procedure: as §1

[18] = biological target: T1, thyroid stimulating hormone receptor …; test: 125I-K1-18 Fab competition, TSHR coated tubes; 1 µg/mL in HBD
Procedure: as §1

[19] = biological target: T1, thyroid stimulating hormone receptor …; test: 125I-K1-18 Fab competition, TSHR coated tubes; 100 µg/mL in HBD
Procedure: as §1

[20] = biological target: T2, full length human TSHR, detergent-solubilised, coated on tubes or ELISA plate wells (human, UniProt P16473 22-764); test: Scatchard analysis, full length TSHR coated tubes (mean±SD, n=3)
T2 construct: Full length receptor expressed in CHO cells, solubilised with detergent and held on the plastic by a mouse MAb to the C-terminus; The leader 1-21 is stated for the TSHR260 construct of the same receptor; also called TSH receptor; TSHR (full length)

[21] = biological target: T3, human TSH receptor, full length, detergent-solubilised, coated on tubes or ELISA plate wells (human, UniProt P16473 22-764); test: TSHR binding affinity (summary table; Scatchard analysis, TSHR coated tubes)
T3 construct: Full length recombinant receptor expressed in CHO cells, solubilised and coated via a C-terminal antibody; also called wild type TSHR; full length TSHR

[22] = biological target: T2, full length human TSHR, …; test: Scatchard analysis, 125I-labelled antibody on full length TSHR coated tubes (mean±SD, n=3)
TSHR260 = biological target: T4, TSHR260 (human, UniProt P16473 22-260); test: Scatchard analysis, TSHR260 coated tubes (mean±SD, n=3)
T4 construct: Expressed in insect cells; coated on tubes or wells by way of a mouse TSHR MAb (14C4 F(ab')2 in the stability ELISA); also called TSHR fragment of amino acids 22-260

Inhibition of binding (%) [8] [%] | Inhibition of binding (%) [9] [%] | Inhibition of binding (%) [10] [%] | Inhibition of binding (%) [11] [%] | Inhibition of binding (%) [12] [%] | Inhibition of binding (%) [13] [%] | Inhibition of binding (%) [14] [%] | Inhibition of binding (%) [15] [%] | Inhibition of binding (%) [16] [%] | Inhibition of binding (%) [17] [%] | Inhibition of binding (%) [18] [%] | Inhibition of binding (%) [19] [%] | further results | Molecule
 |  |  |  |  |  |  |  |  |  |  |  | Mean absorbance at 405 nm (absorbance at 405 nm) [1]: 0.006; Mean absorbance at 405 nm (absorbance at 405 nm) [2]: 0.273; Mean absorbance at 405 nm (absorbance at 405 nm) [3]: 0.056; Mean absorbance at 405 nm (absorbance at 405 nm) [4]: 0.011; Mean absorbance at 405 nm (absorbance at 405 nm) [5]: 0.329; Mean absorbance at 405 nm (absorbance at 405 nm) [6]: 0.102; Mean absorbance at 405 nm (absorbance at 405 nm) [7]: 0.481 | 9D33 IgG (mouse TSHR blocking MAb) (antibody)
94.8 | 78.5 | 93.3 | 95.7 | 93.7 | 57 | 94.5 | 94 | 94.8 | 94.5 | 91.9 | 96 |  | K1-18 IgG (antibody, V domains shown, Human IgG1 kappa purified from hetero-hybridoma supernatant; also called human monoclonal autoantibody K1-18) VH: EVQLVQSGAEVKKPGESLKISCKGSGYSFTNYWIGWVRQMPGKGLEWMGIIYPYDSDTRYSPSFEGQVTISADKSIRTAYLHWSSLKASDTAMYYCVRPRDGSYPYDAFDIWGQGTMVTVSS VL: EIVLTQSPGTLSLSPGERATLSCRASQSVSNNYLAWYQQKPGQAPRLLIYGASSRATGIPDRFSGSGSGTDFTLTISRLEPEDFAVYYCQHCGSSLRAFGQGTKVEIKR
 |  |  |  |  |  |  |  |  |  |  |  | Ka [20]: 1.8e+09 M⁻¹ | K1-18 Fab (Fab, V domains shown) VH: EVQLVQSGAEVKKPGESLKISCKGSGYSFTNYWIGWVRQMPGKGLEWMGIIYPYDSDTRYSPSFEGQVTISADKSIRTAYLHWSSLKASDTAMYYCVRPRDGSYPYDAFDIWGQGTMVTVSS VL: EIVLTQSPGTLSLSPGERATLSCRASQSVSNNYLAWYQQKPGQAPRLLIYGASSRATGIPDRFSGSGSGTDFTLTISRLEPEDFAVYYCQHCGSSLRAFGQGTKVEIKR [K1-18 Fab, listing 1 of 2 here]
 |  |  |  |  |  |  |  |  |  |  |  | Ka [21]: 7e+09 M⁻¹ | K1-18 IgG (human monoclonal TSHR autoantibody with stimulating activity) (antibody, V domains shown, IgG1 kappa purified from hetero-hybridoma supernatant; also called stimulating MAb K1-18 (IgG1 kappa)) VH: EVQLVQSGAEVKKPGESLKISCKGSGYSFTNYWIGWVRQMPGKGLEWMGIIYPYDSDTRYSPSFEGQVTISADKSIRTAYLHWSSLKASDTAMYYCVRPRDGSYPYDAFDIWGQGTMVTVSS VL: EIVLTQSPGTLSLSPGERATLSCRASQSVSNNYLAWYQQKPGQAPRLLIYGASSRATGIPDRFSGSGSGTDFTLTISRLEPEDFAVYYCQHCGSSLRAFGQGTKVEIKR
83.5 | 62.5 | 81.5 | 82.6 | 81.1 | 43.9 | 81.6 | 82.8 | 86.2 | 84.2 | 79.2 | 84.8 |  | K1-18 Fab (Fab, V domains shown) VH: EVQLVQSGAEVKKPGESLKISCKGSGYSFTNYWIGWVRQMPGKGLEWMGIIYPYDSDTRYSPSFEGQVTISADKSIRTAYLHWSSLKASDTAMYYCVRPRDGSYPYDAFDIWGQGTMVTVSS VL: EIVLTQSPGTLSLSPGERATLSCRASQSVSNNYLAWYQQKPGQAPRLLIYGASSRATGIPDRFSGSGSGTDFTLTISRLEPEDFAVYYCQHCGSSLRAFGQGTKVEIKR [K1-18 Fab, listing 2 of 2 here]
94.6 | 73.8 | 94 | 95.5 | 94.5 | 60.1 | 95.8 | 95.3 | 94.8 | 95.1 | 94 | 95.6 |  | K1-70 IgG (antibody, V domains shown, Human IgG1 lambda purified from hetero-hybridoma supernatant; also called human monoclonal autoantibody K1-70) VH: EVQLVQSGAEVKKPGQSLKISCKASGYSLTDNWIGWVRQKPGKGLEWMGIIYPGDSDTRYSPSFQGQVTISADKSINTAYLQWSSLKASDTAIYYCVGLDWNYNPLRYWGPGTLVTVSS VL: QSVLTQPPSVSAAPGQKVTISCSGSSSDIGSNYVSWYQQFPGTAPKLLIYDNNKRPSAIPDRFSGSKSGTSATLGITGLQTGDEADYYCGTWDSRLGIAVFGGGTQLTVLG
 |  |  |  |  |  |  |  |  |  |  |  | Ka [22]: 3.9e+10 M⁻¹; Ka (TSHR260): 3.1e+10 M⁻¹ | K1-70 IgG (antibody, V domains shown, N-terminus blocked; deblocked with pyroglutamate aminopeptidase for Edman sequencing, Human IgG1 lambda purified from hetero-hybridoma supernatant; also called human MAb K1-70) VH: EVQLVQSGAEVKKPGQSLKISCKASGYSLTDNWIGWVRQKPGKGLEWMGIIYPGDSDTRYSPSFQGQVTISADKSINTAYLQWSSLKASDTAIYYCVGLDWNYNPLRYWGPGTLVTVSS VL: QSVLTQPPSVSAAPGQKVTISCSGSSSDIGSNYVSWYQQFPGTAPKLLIYDNNKRPSAIPDRFSGSKSGTSATLGITGLQTGDEADYYCGTWDSRLGIAVFGGGTQLTVLG
 |  |  |  |  |  |  |  |  |  |  |  | Ka [20]: 2.3e+10 M⁻¹; Ka (TSHR260): 9.3e+09 M⁻¹ | K1-70 Fab (Fab, V domains shown, N-terminus blocked; deblocked with pyroglutamate aminopeptidase for Edman sequencing) VH: EVQLVQSGAEVKKPGQSLKISCKASGYSLTDNWIGWVRQKPGKGLEWMGIIYPGDSDTRYSPSFQGQVTISADKSINTAYLQWSSLKASDTAIYYCVGLDWNYNPLRYWGPGTLVTVSS VL: QSVLTQPPSVSAAPGQKVTISCSGSSSDIGSNYVSWYQQFPGTAPKLLIYDNNKRPSAIPDRFSGSKSGTSATLGITGLQTGDEADYYCGTWDSRLGIAVFGGGTQLTVLG
